For four substances, Mn (mean fluorescence intensity) results are on record in patent US20090136936A1.

The test deals with PA-FITC (PA antigen of Bacillus anthracis) (Bacillus anthracis) (UniProt P13423).
Chain of PA-FITC (PA antigen of Bacillus anthracis) (Bacillus anthracis) (P13423 30-764 limits assumed): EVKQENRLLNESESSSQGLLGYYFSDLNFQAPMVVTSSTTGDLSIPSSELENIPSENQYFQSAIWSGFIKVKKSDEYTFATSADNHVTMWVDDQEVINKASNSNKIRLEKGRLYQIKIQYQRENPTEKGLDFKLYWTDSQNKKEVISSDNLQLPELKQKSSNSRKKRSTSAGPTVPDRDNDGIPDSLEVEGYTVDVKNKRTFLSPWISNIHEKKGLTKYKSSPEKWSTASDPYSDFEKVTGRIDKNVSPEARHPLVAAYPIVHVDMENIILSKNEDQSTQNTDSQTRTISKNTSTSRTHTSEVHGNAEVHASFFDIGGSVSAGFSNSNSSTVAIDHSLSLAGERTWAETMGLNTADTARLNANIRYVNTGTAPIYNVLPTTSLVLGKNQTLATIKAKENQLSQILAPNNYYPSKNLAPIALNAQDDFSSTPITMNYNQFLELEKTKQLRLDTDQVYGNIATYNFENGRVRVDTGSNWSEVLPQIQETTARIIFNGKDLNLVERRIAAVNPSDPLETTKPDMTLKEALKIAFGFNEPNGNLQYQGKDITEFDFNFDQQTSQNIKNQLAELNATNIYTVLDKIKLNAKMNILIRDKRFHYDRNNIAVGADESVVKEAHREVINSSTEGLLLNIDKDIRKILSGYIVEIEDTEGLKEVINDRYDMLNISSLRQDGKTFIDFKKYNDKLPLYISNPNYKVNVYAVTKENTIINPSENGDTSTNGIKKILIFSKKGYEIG
Substance 26-10 scFv (anti-digoxin) returned a Mn (mean fluorescence intensity) of 8.49.

With M18 scFv (PelB fused, anti-PA), the Mn (mean fluorescence intensity) was found to be 10.3.

Take PelB-2610scFv-Im2-FLAG: the Mn (mean fluorescence intensity) worked out at 9.12.

PelB-M18scFv-Im2-FLAG gave a Mn (mean fluorescence intensity) of 249.
